Tests used:
[1] = molecular target: equine C3b (horse (endogenous in equine plasma)); assay: SPR; Biacore T200; biotinylated C3b captured on a neutravidin-coupled CMD-200 chip (eqC3b 3,000 RU, human C3b 4,200 RU); SCIN injected 2 min at 2.5-2,500 nM, dissociation 3 min; 25 °C; 20 mM HEPES pH 7.3, 140 mM NaCl, 0.005% Tween 20; 30 μl/min; triplicate; 1:1 kinetic model (KD = kd/ka)
human C3b (human) [2] = molecular target: human C3b (human) (UniProt P01024); assay: as above
[3] = molecular target: equine alternative pathway C3 convertase (eqC3bBb) (horse (endogenous in equine plasma))
[4] = molecular target: equine C3b (horse (endogenous in equine plasma)); assay: SPR; same injections as a1, steady-state binding model; for SCIN-A on eqC3b the concentrations were subsaturating, so the fit used a constant Rmax based on the eqSCIN/eqC3b interaction
human C3b (human) [5] = molecular target: human C3b (human) (UniProt P01024); assay: as above
human C3b (human) [6] = molecular target: human C3b (human) (UniProt P01024); assay: SPR

| Substance | Kd [1] [nM] | koff [1] [s⁻¹] | kon [1] [M⁻¹ s⁻¹] | Kd (human C3b (human) [2]) [nM] | koff (human C3b (human) [2]) [s⁻¹] | kon (human C3b (human) [2]) [M⁻¹ s⁻¹] | inhibition of eqC3 cleavage (α-chain to α′) by fluid-phase eqC3bBb, eqSCIN 0.04-10 μM, densitometry of reducing SDS-PAGE [3] [µM] | Kd [4] [nM] | Kd (human C3b (human) [5]) [nM] | Kd (human C3b (human) [6]) [nM] | koff (human C3b (human) [6]) [s⁻¹] | kon (human C3b (human) [6]) [M⁻¹ s⁻¹] |
| --- | --- | --- | --- | --- | --- | --- | --- | --- | --- | --- | --- | --- |
| equine staphylococcal complement inhibitor (eqSCIN) (natural protein) | 61 | 0.11 | 1.8e+06 | 230 | 0.13 | 550000 | 0.61 | 220 | 300 | – | – | – |
| staphylococcal complement inhibitor SCIN-A (natural protein) | – | – | – | – | – | – | – | 29000 | 140 | 140 | 0.092 | 630000 |
